Data reported in the nanobody polyreactivity screen of Harvey et al. (2022).

assay: yeast display, Sf9 membrane polyspecificity reagent, FACS + sequencing; frameworks hold sequencing errors
Outline: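 A synthetic nanobody library was expressed on Saccharomyces cerevisiae BJ5465 by galactose induction for 36–48 hours. The library was stained for 1 hour at 4 °C with 10% biotinylated, detergent-solubilized Sf9 membrane reagent and enriched with streptavidin microbeads before FACS. Low and high (top ~1%) gates were set on anti-HA fluorescence for expression and streptavidin fluorescence for reagent binding, and each polyreactivity label reflects the gate of origin.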

Sequence | polyreactivity (PSR sort gate)
QVQLVESGGGLVQAGGSLRLSCAASGRIFNRYAMGWSRQAPGKERELVAAITTSADSTYADSVKGRFTISRDNAKNTVYLQRNSLKPEDTAVYYCNVASRQGSTYDYWGQGTQVTVSS | high polyreactivity
QVQLVESGGGLVQAGGSLRLSCAASGSIFGRNVMGWYRQAPGKERELVARITRGGSTNYADSVKGRFTISRDNAKNTVYLQMNRLQPEDTAVYYCAAGARQYRGVPDRYGYWGQGTQVTVSS | low polyreactivity
QVQLVESGGGLVQAGGSLRLSCAASGTFIGYAMGWYRQAPGKERELVAAIDVSGGSTYYADSVKGRFTISRDNAKNTVYLQMNSLKPEDTAVYYCATDRGPEVVLYDYWGHGTQVTVSS | low polyreactivity
QVQLVESGGGLVQAGGSLRLSCAASGSTFQVYAMGLYRQAPGKERELVASITSGGSTYADSVKGRFTISRDNAKNTVYLQINSLKPEDTAVYYCAAGGYFYPYTYDYWGQGTQVTVSS | low polyreactivity
QVQLVESGGGLVQAGGSLRLSCAASGRISVRIYAMGWYRQAPGKERELVAIISRSGGSTYYADSVKGRFTISRDNAKTTVYLQMNSLKPQDTAVYYCNARWSFSYTVWVASYWCLDDYWGQGTQVTVSS | high polyreactivity
QVQLVESGGGLVQAGGSLRLSCAASGSIIYLYAMGWYRQAPGKEREFVAAITWRGASTYYADSVKGRFTISRYNAKNTVYLQMNSLKPEDTAVYYCAAKLPRVYGYGFDYWGQGTQVTVSS | low polyreactivity
QVQLVESGGGLVQEGGSLRLSCAASGSIFIANAMGWYRQAPGKERELVARITRGGRTNYADSVKGRFTISRDNAKNTVYLQMNSLKPEDTAVYYCAAVYYVGFPHKYDYWGQGTQVTVSS | low polyreactivity
QVQLVESGGGLVPAGGSLRLSCASSGIIFWVNAMGWYRQAPGNERELVAAIRSDGSTKYADSVKRRFTISRDKAKNTVYVQMNSLKPVDTALYYCAKRDYSYPWFRDYYYWGQGTKVTVSS | low polyreactivity
QVQLVESGGGLVQAGGSLRLSCAASGSTFTAYAMGWYRQAPGKERELVAAISKRSGGTYYADSVKGRFTISRDNAKNTVYLQMNSLKPEVTAVYYCGQGTQVTVSS | low polyreactivity
QVQLVESGGGLVQAGGSLRLICDASGLTFGIYTMGWYRQAPAKESELVAAINWIGTRTYYADSVKGRFTISRDNAKNTVYLQMNSLKPEDTAVYYCATVIGYTKRKYDYWGQGTQVTVSS | high polyreactivity
QVQLVESGAGLVQAGGSLRLSCAASGFIFLAYTMGWSRQGPAKERELVAAISTSGGSTYYADSVKGRFTISRDKAKNTVYLEMNSLKPEDTGVYYCAADYSYWRGYDSWGQGTQVTVSS | high polyreactivity
QVQLVESGGGLVQAGGSLRLSCAASGFTFGSNAMGWYRQAPGKERELVAAISSRGGRTYYADSVKGRFTISRDNAKNTVYLQMNSLKPEDTAVYYCAKYRSYRGPYNYWGQGTQVTVSS | high polyreactivity
QVKLVESGGGLVQAGGSLRLSCAASGSISLYYAMGWYRQAPGKERELVAAISDSGGDTYYADSVKGRFTISRDNAKITVYLQMNSLKPADTAVYYCATDTAYWLWVYALLEYWGQGTQVTVSS | low polyreactivity
QVQLVESGGGLVQAGGSLRLSCAASGSTIPYYAMGWYRQAPGKERELVARIRWNGDSTFYADSVKGRFTISRDNAKNTVYLQMNSLKTEDSAVYYCAAYGKRLGERLNYYYWGQGTQVTVSS | high polyreactivity
QVQLVESGGGLVQAGGSLRLSCAASGRIFGVYAMGWYRQAPGKERELVADISWSGSGTYADSVKGRFTISRDNAKNTVYLQMNSLKPEDTAVYYCNVDPAQIHSGYVGYDYWGQGTQVTVSS | low polyreactivity
QVQLVESGGGLVQAGGSLRLSCAASGSTFVIYAMGWYRQAPGKERELVASIRGRTGSTYYADSVKGRFTISRDNAKNTVYSQLNSLKPEDTAVYYCAAKPGYKSKMDYWGQGTQVTVSS | high polyreactivity
QVQLVESGGGLVQAGGSLRLSCAASGGTFVGNAMGWYRQAPGKERELVAAISTNSGSTYYADSVKGRFTISRDNAKNTVYLQMNSLKPEDPAVYYCATRNSSKRRGYYYWGQGTQVTVSS | high polyreactivity
QVQVEESGGGVVQAGGSLRLSCAAYGRIFFRNAMGWYRPAPGKERELVAVINTGGSTNYADSVKGRFTISRDNAKNTVYLQMNRLKAEDTAVYYCAVDRASRRTYNQYGYWGQGTQVSVSS | high polyreactivity
QVQLVESGGGLVQAGGSLRLICAASGSIFFSYAMGWYRQAPGKERELVAAIDYSGGGTYYADSVMGRFTISRDNAKNTVYLQMNSLKPEDTAVYYCNSDTEVWADTFISYRALNYWGQGTQVTVSS | low polyreactivity
QVQLVESGGGLVQAGGSLRLSCAASGSISYYYGKGWYRQAPGKERELVAAISTRGGSTYYADSVKGRFTISRDNAKNTVYLQMNSLKPEDTAVYYCNKVYYKRFYYWGQGTQVTVSS | high polyreactivity
QVQLVESGGGLVQAGGSLRLSCAASGRTFLRYAMGWYRQAPGKERELVAAITYGGRTNYADSVKGRFTISRDNAKNTVYLQMNSLKPEDTAVYYCAADRTYYYGLRVYYWGQGTQVTVSS | high polyreactivity

Sequence | polyreactivity (PSR sort gate)
QVQLVESGGGLVQAGGSLRLSCAASGYIFHRYAMGWYRQAPGKEREFVAAIRWSGGSTYYADSVKGRFTISRDNAKNTVYLQMNSLKPEDTAVYYCAADKYVLGYYYGQYDYWGQGTQVTVSS | low polyreactivity
QVQLVESGGGLVQAGGSLRLSCAASGRNFRSYVMGWYRQAPGKERELVASIRNRGGTTYYADSVKGRFTISRDNAKNTVYLQMNSLKPEDTAVYYCNAAPARTVYAQSSYVLYDYWGQGTQVTVSS | low polyreactivity
QVQLVESGGGLVQAGGSLRLSCAASGIIFSGYAMGWYRQAPGKERELVAAITGSGDITYYADSVKGRFTISRDNAKNTVYLQMNSLKPEDTAVYYCADVASSQYRAEEYNYWGQGTQVTVSS | low polyreactivity
QEQLVESGGGLVQAGGSLRLSCAASGFIFPGYTMGWYRQAPGKERELVAAISRGSSTFYADSVKGRFTISRDNAKNTVYLQMNSLKPEDTAFYYCNTRVYAITLYDYWGQGTQVTVSS | low polyreactivity
QVQLVESGGGLVQAGGSLRLSCAASGLIFTPYAMGWYRQAPGKESELVAAISSSGGTTYYADSVKGRFTISRDNAKNTVYLQMKSLKPEDTAVYYCAADTGYPGYYPEYYWGQGTQVTVSS | high polyreactivity
QVQLVESGGGLVQAGGSLRLSCAASGFTFTRYAMGWYRQAPGKERELVATITKRGGSTYYADSVKGRFTISRDNAKNTVYLQMNSLKPEDTAVYYCAADGASRALYDFWGQGTQVTVSS | high polyreactivity
QVQLVESGGGLVQAGGSLRLSCAASGLTFKRNAMGWYRQAPGKERELVAAIRYSTDSTNYADSVKGRFTISRDNAMYTVYLQMNSLKPEDTAVYYCAKDKQDYEYWGQGTQVTVSS | low polyreactivity
QVQLVESGGGLVQAGGSLRLSCASSGLTFYGNAMVWYRPAPGKERELVAAISSSGGTTYYADSVKGRFTISRDNAKNTVYLQMTSLKPEDTAVYYCAARPSGGYESTRTRDYWGQGTQVTVSS | low polyreactivity
QVQLVESGGGLVQAGGSLRLSCAASGITSWYYAMGWYRQAPGKERELVAAITSDGRTNYADSVMGRFTISRDNAKNTVYLQMNSLKPEDTAVYYCAVARYPYRYDYWGQGTQVTVSS | high polyreactivity
QVQLVESGGGLVQAGGSLRLSCAASGSTFLRYAMGWYRQAPGKERELVAGIRYSGGTYYADSVKGRFTISRDNAKNTVYLQMNSLKPEDTAVYYCAAYWKLGGFRYGYWGQGTQVTVSS | high polyreactivity
QVQLVESGGGLVQAGGSLRLSCAASGHIFFYYTMGWYRQAPGKERELVAGITIGGSTNYADSVKGRFTISRDNAKNTVYLKMNSLKPEDTAVYYCNVVKYVYIYSYWEYYYWGQGTQVTVSS | low polyreactivity
QVQLVESGGGLVQAGGSLRLSCAASGSTFATNTMGWYRQAPGKERELVAAITSGGSTYYADSVKGRFTISRDNAKNTVYLQMNSLKPEDTAVYYCAVRGVYYYHRAFDYWGQGTQVTVSS | high polyreactivity
QVQLVESGGGLVQAGGSLRLSCAASGSTSGIYAMGWYRQAPGKERELVARINSGGSTYYADSVKGRFTISRDNAKNTVYLQMNSLKPEDTAVYYCNRVPNKYGRPIDSRWRGDYWGQGTQVTVSS | low polyreactivity
QVQLVESGGGLVQAGGSLRLSCAASGFTFKQYGMGWYRQAPGKERELVASISYRGGSTHYADSVKGRFTISRDNAKKTVYLQMNSLKPEDTAVYYCAARVTSRTSIKGDYWGQGTQVTVSS | low polyreactivity
QFQLVESGGGLVQAGGSLRLSCAASGFTFPRYAMGWYRQAPGKERELVAAITSGDRTYYADSVKGRFTISRDNAKNTVYLQMNSLKPEDTAVYYCAKSSPRKSSQKHSFYEYNYWGQGTQVSVSS | high polyreactivity
QVQLVESGGGLVQAGGSLRLSCAASGRIFGIYTMGWYRQAPGKERELVAAITQGGGSTYYADSVKGRFTISRDNAKNTVYLQMNSLNPEDTAVYYCAARPKSPSGTRRYYWGQGTQVTVSS | high polyreactivity
QVKHVESGGGLVQAGGSLRLSCAASGFTFSYYAMGWFRQAPGKERELVAAITSGGSTYYADYVKGRFTISRDNAKNTVYLQMNSLKPEDTAVYYCNADGWYYPTDDYWGHGTQVTVSS | low polyreactivity
QVQLVESGGGLVQAGGSLRLSCAASGSTFYYYAMGWYRQAPGKERELVAVISWGGGSTYYADSVKGRFTISRDNAKNTVYLQMNSLKPEDTAVYYCAAVYDEYQTTHEYDYWGQGTQVTVSS | low polyreactivity
QVQLVESGGGLVQAGGSLRLSCAASGFTIYANAMGWYRQAPGKERELVAAISSNGGSTYYADSVKGRFTISRDNAKNTVYLQMKSLKPEDTAVYSCADYFGSVLRSTIYDYWGQGTQVTVSS | low polyreactivity
QVQLVESGGGLVQAGGSLRLSCAASGFTFLSYTMGWYSQAPGKERELVASITASGTRTYYADSVKGRFIISRDNAKNTVYLQMNRLKPEDTAVYYFAARWISVWSEGAEHDYWGQGTQVTVSS | low polyreactivity
